Laboratory results from patent US20260103503A1.

Assays:
[1] = molecular target: Tm NY-ESO (human); assay: flow cytometry, tetramer staining of transduced CD4+ T cells; nt control Q2 0.56
[2] = molecular target: Tm NY-ESO (human); assay: flow cytometry, tetramer staining of transduced CD8+ T cells; nt control Q2 0.79
[3] = molecular target: Tm NY-ESO (human); assay: flow cytometry, tetramer staining of transduced CD4+ T cells; nt control Q1 0.020
[4] = molecular target: Tm NY-ESO (human); assay: flow cytometry, tetramer staining of transduced CD8+ T cells; nt control Q1 0.084
[5] = molecular target: NY-ESO-1 peptide on HLA-A*02:01 (human); assay: SPR as tabulated in Table 2 (BIAcore analysis); reference TCR; soluble, other

Substance | Q2 (Tm NY-ESO+ CD4+), percent of cells [1] | Q2 (Tm NY-ESO+ CD8+), percent of cells [2] | Q1 (Tm NY-ESO+ CD4-), percent of cells [3] | Q1 (Tm NY-ESO+ CD8-), percent of cells [4] | Kd [5] | koff [5] | kon [5]
1G4LY TCR on transduced T cells | 63.2% | 64.9% | 0.89% | 2.53% | – | – | –
1G4 | – | – | – | – | 14.2 µM | 0.12 s⁻¹ | 17000 M⁻¹ s⁻¹
